Positions count from the first letter of the chain named. Blank lines part the entries; values can stand above or below the binder they belong to.
Columns and labels:
BSA = BSA (UniProt P02769); test: ELISA; plate coated with BSA (control); E. coli supernatant; HRP anti-VHH
[1] = biological target: T1, TGFβ2 protein (GenScript Z03429) (human, UniProt P61812 303-414); test: ELISA; plate coated with human TGF-β2; antibody titrated; HRP anti-human Fc
T1 construct: also called human TGF-β2
T1 sequence (looked up): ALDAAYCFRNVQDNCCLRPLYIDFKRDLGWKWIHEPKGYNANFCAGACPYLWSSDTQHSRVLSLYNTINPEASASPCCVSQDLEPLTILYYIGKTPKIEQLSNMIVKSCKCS
Protocol: (§1) A microplate was coated with 2 μL/well of the human TGF-β1/2/3 protein solution, respectively, at 4° C. overnight; the supernatant was discarded, 300 μL of a blocking solution (PBS containing 3% BSA) was added to each well, and the plate was blocked at 37° C. for 2 h; the antibodies were gradiently diluted, and the diluent was PBS containing 1% BSA. For example, the initial concentration of the antibody dilution was 500 nM, and diluted 10-fold to obtain 8 concentration gradients. The diluted antibody was added to the well of the microplate at 200 μL per well, the plate was left to stand and incubated at room temperature for 2 h, and the supernatant was discarded; the plate was washed for 3 times with 200 μL/well PBST (PBS containing 0.1% Tween 20); a diluted HRP-labeled anti-human Fc secondary antibody (SIGMA, A8667) was added, the secondary antibody was used after a 1:20000 dilution, the diluent was PBS containing 1% BSA, the volume was 100 μL/well, and the plate was incubated at room temperature for 1 h; the plate was washed for 5 times with 200 μL/well PBST; a TMB chromogenic solution (BD, 55214) was added at 100 μL/well for color development at 37° C. for 8 min. 2 M HCl stop solution was added at 100 μL/well. After the addition of the stop solution, the 450 nm values were read using a microplate reader within 30 min. Data were analyzed using GraphPad Prism 6.0 software and avidity fitting was performed to give EC50 values.

[2] = biological target: T2, TGFβ3 protein (GenScript Z03430) (human, UniProt P10600 301-412); test: ELISA; plate coated with human TGF-β3; antibody titrated; HRP anti-human Fc
T2 construct: also called human TGF-β3
T2 sequence (looked up): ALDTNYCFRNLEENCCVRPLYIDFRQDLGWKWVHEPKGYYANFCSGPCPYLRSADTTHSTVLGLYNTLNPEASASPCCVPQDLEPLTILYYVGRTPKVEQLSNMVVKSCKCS
Protocol: as §1

[3] = biological target: T3, TGFβ1 protein (GenScript Z03411) (human, UniProt P01137 279-390); test: ELISA; plate coated with TGFβ1; E. coli supernatant; HRP anti-VHH
T3 construct: also called human TGF-β1; TGFβ1 antigen
Protocol: A microplate was coated with 2 μL/well of the TGFβ1 protein solution and BSA, respectively, at 4° C. overnight; the supernatant was discarded, 300 μL of a blocking solution (PBS containing 3% BSA) was added to each well, and the plate was blocked at 37° C. for 2 h; the supernatant collected by centrifugation was added to the well of the microplate at 200 μL per well, the plate was left to stand and incubated at room temperature for 2 h, and the supernatant was discarded; the plate was washed for 3 times with 200 μL/well PBST (PBS containing 0.1% Tween 20); a diluted HRP-labeled anti-VHH secondary antibody (Genscript, A01861) was added, the secondary antibody was used after a 1:10000 dilution, the diluent was PBS containing 1% BSA, the volume was 100 μL/well, and the plate was incubated at room temperature for 1 h; the plate was washed for 5 times with 200 μL/well PBST; a TMB chromogenic solution (BD, 55214) was added at 100 μL/well for color development at 37° C. for 8 min. 2 M HCl stop solution was added at 100 μL/well. After the addition of the stop solution, the 450 nm values were read using a microplate reader within 30 min.

[4] = biological target: T3, TGFβ1 protein (GenScript Z03411); test: ELISA; plate coated with human TGF-β1; antibody titrated; HRP anti-human Fc
Protocol: as §1

Chain of BSA (P02769 25-607 limits assumed): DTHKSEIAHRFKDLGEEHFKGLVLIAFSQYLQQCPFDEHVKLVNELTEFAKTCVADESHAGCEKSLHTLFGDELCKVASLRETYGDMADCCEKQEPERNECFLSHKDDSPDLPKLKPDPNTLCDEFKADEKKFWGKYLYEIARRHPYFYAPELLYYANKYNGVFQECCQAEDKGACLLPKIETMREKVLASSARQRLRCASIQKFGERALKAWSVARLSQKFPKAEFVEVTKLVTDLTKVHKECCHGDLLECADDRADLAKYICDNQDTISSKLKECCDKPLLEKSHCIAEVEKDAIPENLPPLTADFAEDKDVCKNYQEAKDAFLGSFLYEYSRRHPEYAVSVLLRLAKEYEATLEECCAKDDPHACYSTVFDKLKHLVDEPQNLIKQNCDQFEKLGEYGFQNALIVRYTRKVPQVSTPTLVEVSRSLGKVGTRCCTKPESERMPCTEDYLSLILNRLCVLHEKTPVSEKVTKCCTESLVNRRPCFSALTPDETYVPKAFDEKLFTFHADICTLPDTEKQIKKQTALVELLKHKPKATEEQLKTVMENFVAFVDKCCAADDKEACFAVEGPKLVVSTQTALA
T3 sequence (P01137 279-390 limits assumed, one chain of several): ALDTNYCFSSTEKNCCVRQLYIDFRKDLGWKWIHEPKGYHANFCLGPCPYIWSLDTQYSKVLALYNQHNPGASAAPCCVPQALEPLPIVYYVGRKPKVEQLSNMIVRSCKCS

B2: B2F6 anti-TGFβ single domain heavy-chain antibody (variable region, linker peptide, human IgG1 heavy chain constant region) (Fc fusion)
heavy: EVQLVESGGGLVQPGGSLRLSCAASGFTFSYYVASWYRQAPGKERELVATTFPPDGSPHYADSVKGRFAISRDNAKNTVFLQMDSLKSEDTAVYYCNARRVEGHGIYWGQGTQVTVSS
notes: not shown: linker peptide (GGGGS)n, n=1, 2 or 3; human IgG1 heavy chain constant region, GenBank No. AK303185.1
EC50 [1]: 0.774 nM
EC50 [2]: 1.03 nM

B3: B2A2 heavy chain single-domain antibody (VHH)
VHH: EVQVVESGGAAVQPGESLRLSCAASGSIFNTATMGWFRQAPGKQREMVAIITDGGRTNYADSVKGRFTISRDATKNTVYLQMNSLNPGDTAVYYCNALTIVPRSSIYWGQGTQVTVSS
notes: Tested as crude supernatant of IPTG-induced E. coli TG1 carrying the pComb3XSS clone
OD value of binding to BSA (BSA): 0.064 OD 450 nm
OD value of binding to TGFβ1 [3]: 1.69 OD 450 nm

B7: B1B8 heavy chain single-domain antibody (VHH)
VHH: EVQVVESGGGLVQPGGSLTLSCVASGFAFSFTPMRWVRQAPGKGLEWVSSISIRGDTTDYADSVKGRFTISRDNAKNTLYLQMNSLKPEDTAVYYCSRGSSISTSTERTQGTQVTVSS
notes: as for B3
OD value of binding to BSA (BSA): 0.063 OD 450 nm
OD value of binding to TGFβ1 [3]: 1.92 OD 450 nm

B8: B2C2 heavy chain single-domain antibody (VHH)
VHH: QLQLVESGGGLVQPGGSLRLSCAGSGIAFSRVTMAWSRQAPGKQRELVALITDGNRSAYVDSVKGRFTISRDNTKKTMSLQMNDLKPEDTAVYYCVATDWVPTRRDYWGQGTQVTVSS
notes: as for B3
OD value of binding to BSA (BSA): 0.058 OD 450 nm
OD value of binding to TGFβ1 [3]: 2.05 OD 450 nm

B10: B3F1 anti-TGFβ single domain heavy-chain antibody (variable region, linker peptide, human IgG1 heavy chain constant region) (Fc fusion)
heavy: QLQLVESGGGLVQPGGSLTLSCAASGFTFSLYPMSWVRQAPGKGLEWVSVIGSDGGTKHYSDSVKGRFAISRDNAKNTLYLQMNSLKPEDTAVYYCAEGDSRYVRGRTRGQGTQVTVSS
notes: as for B2
EC50 [1]: 148 nM
EC50 [2]: 1.33 nM

B14: B2A9 heavy chain single-domain antibody (VHH)
VHH: QLQLVESGGGLVQPGGSLRLSCTASGSTFEIYPIYAMAWFRQTPGKQRELVALTTDVKTNYADSVKGRFTISRDNAKNTVYLQMNMLQPEDTAVYVCNVGVVRGGLQNYWGQGTQVTVSS
notes: as for B3
OD value of binding to BSA (BSA): 0.061 OD 450 nm
OD value of binding to TGFβ1 [3]: 1.92 OD 450 nm

B15: B2A9 anti-TGFβ single domain heavy-chain antibody (variable region, linker peptide, human IgG1 heavy chain constant region) (Fc fusion)
heavy: B14 VHH
notes: as for B2
EC50 [4]: 5.43 nM
EC50 [1]: 1.25 nM
EC50 [2]: 1.46 nM

B16: B1C5 heavy chain single-domain antibody (VHH)
VHH: EVQLVESGGGEVRPGGSLRLSCVVSGFTKDYGAIGWFRQAPGQEREGLGCIARKDGDTWSADSVKGRFTISRDNVRNTVYLQMNALKPEDRGVYYCAGDPSALYGCSDRSSEYQYWGQGTQVTVSS
notes: as for B3
OD value of binding to BSA (BSA): 0.052 OD 450 nm
OD value of binding to TGFβ1 [3]: 2.08 OD 450 nm

B17: B1F8 heavy chain single-domain antibody (VHH)
VHH: QVQLVESGGGLVQPGGSLRLSCAASGSIFGVFYMGWFRQAPGKQREMVAISTDDRTSYVDSVKGRFTISRDNAKNTLALQMNSLKPEDTAVYFCNLNQLGTDYWGPGTQVTVSS
notes: Tested as crude supernatant of IPTG-induced E. coli TG1 carrying the pComb3XSS clone; also called BIF8
OD value of binding to BSA (BSA): 0.07 OD 450 nm
OD value of binding to TGFβ1 [3]: 1.03 OD 450 nm

B19: B1B7 heavy chain single-domain antibody (VHH)
VHH: QVQLVESGGGLVQPGGSLTLSCTASGSMFSFYTMGWYRQATGKQRELVAGISLGGETTYAPSVKDRFTISRDNAKNTVYLQMNSLKPEDTALYNCNAYWGEDYWGQGTQVTVSS
notes: as for B3
OD value of binding to BSA (BSA): 0.067 OD 450 nm
OD value of binding to TGFβ1 [3]: 1.95 OD 450 nm

B20: B2C9 heavy chain single-domain antibody (VHH)
VHH: EVQVVESGGGLVQPGGSLRLSCAASASVFSWSVMGWFRQAPGKQRELVAISSGDRETYADSVKGRFTISRDNAKNTVYLQMDTLKPEDTAVYFCNAYVPVGESRGDYWGQGTQVTVSS
notes: as for B3
OD value of binding to BSA (BSA): 0.055 OD 450 nm
OD value of binding to TGFβ1 [3]: 1.88 OD 450 nm

B21: B2C9 anti-TGFβ single domain heavy-chain antibody (variable region, linker peptide, human IgG1 heavy chain constant region) (Fc fusion)
heavy: B20 VHH
notes: as for B2
EC50 [4]: 4.83 nM
EC50 [1]: 1.42 nM
EC50 [2]: 1.21 nM

B22: B2A1 heavy chain single-domain antibody (VHH)
VHH: QVQLVESGGGLVQPGGSLRLSCAASGITFSHYDMAWFRQAPEKQRELVALITSGGKTAYADSVKGRFAISRDNAKNTVYLQMNSLKAGDTAVYYCNAHWVLTSQYWGQGTQVTVSS
notes: as for B3
OD value of binding to BSA (BSA): 0.057 OD 450 nm
OD value of binding to TGFβ1 [3]: 1.29 OD 450 nm

B23: B2A1 anti-TGFβ single domain heavy-chain antibody (variable region, linker peptide, human IgG1 heavy chain constant region) (Fc fusion)
heavy: B22 VHH
notes: as for B2
EC50 [4]: 3.82 nM
EC50 [1]: 1.07 nM
EC50 [2]: 1.25 nM

The next lines start with the values.

OD value of binding to BSA (BSA): 0.053 OD 450 nm
B1: B2F6 heavy chain single-domain antibody (VHH)
VHH: B2 heavy

OD value of binding to BSA (BSA): 0.064 OD 450 nm
OD value of binding to TGFβ1 [3]: 1.85 OD 450 nm
B4: B2G8 heavy chain single-domain antibody (VHH)
VHH: QVQLVESGGGLVQPGGSLRLSCAASGISFSYYDMGWFRQAPGKQRELVAIVTSGGRTNYADSVKGRFTISRETAKSTMYLQMNSLKSEDTGVYYCNAHWIVTTDYWGQGTQVTVAS
notes: as for B3

OD value of binding to BSA (BSA): 0.067 OD 450 nm
OD value of binding to TGFβ1 [3]: 1.65 OD 450 nm
B5: B3D6 heavy chain single-domain antibody (VHH)
VHH: EVQLVESGGGLVQAGGSLRLSCAASGRSFSSLAVGWFRQPPGKKREIVAAVNWSGTSTYYPDSVKGRFSISRDNTKNTVYLQMNSLKPEDTAVYYCAADPDLRWLKLWGYEYWGQGTQVTVSS
notes: as for B3

OD value of binding to BSA (BSA): 0.057 OD 450 nm
OD value of binding to TGFβ1 [3]: 2.06 OD 450 nm
B6: B2H1 heavy chain single-domain antibody (VHH)
VHH: QLQLVESGGGLVQPGESLRLSCAASGIIFSASTMAWFRQAPGKQRELVALITDGDRTNYADSVKGRFTISRDNAENTVYLQMTELKFEDTAVYYCNAFWLKAYWGQGTQVTVSS
notes: as for B3

OD value of binding to BSA (BSA): 0.061 OD 450 nm
OD value of binding to TGFβ1 [3]: 1.99 OD 450 nm
B9: B3D2 heavy chain single-domain antibody (VHH)
VHH: B10 heavy with A23L, L31H, G56A, T57I, G106N, T108A
notes: as for B3

OD value of binding to BSA (BSA): 0.051 OD 450 nm
B11: B3C5 heavy chain single-domain antibody (VHH)
VHH: B10 heavy with L31H, H59I, S71A

OD value of binding to BSA (BSA): 0.051 OD 450 nm
B12: B3F1 heavy chain single-domain antibody (VHH)
VHH: B10 heavy

EC50 [1]: 3.52 nM
EC50 [2]: 1.35 nM
B13: B3C5 anti-TGFβ single domain heavy-chain antibody (variable region, linker peptide, human IgG1 heavy chain constant region) (Fc fusion)
heavy: B10 heavy with L31H, H59I, S71A
notes: as for B2

OD value of binding to BSA (BSA): 0.071 OD 450 nm
OD value of binding to TGFβ1 [3]: 2.29 OD 450 nm
B18: B3F3 heavy chain single-domain antibody (VHH)
VHH: B17 VHH with G16E, A23T, E46D, V59A
notes: as for B3
